Test: soluble on expression in E. coli; label from the status in PepcDB or PDB records

Sequence	soluble on expression in E. coli
MLTSRALRIPRKPFVDLDYARHMPSAYVERTKRTVPRKVFGDRFGAPDIKMYYVHPDDYVPSHRRPWEDKQISSHLHRSDKYFSAQLSNQYFNLRRPKSERMADTEWTFFPGDLVQVMVGKDKGRQGLVLTTSRDSSDVIVDGLHTKLGEDMEGSEKLGVDKTLRWQEQPLSVSKKQVMLVDPNDEQPCEARWQLNGPGDEYIRVSTRSGYEIPIPSQAKVTYEYLQPENYIEVEGKDTPADAVLERTYMPKVASFEQEIMEEMGIKEERTPKPTFWY	not soluble
SISQQTVWNQMATVRTPLNFDSSKQSFCQFSVDLLGGGISVDKTGDWITLVQNSPISNLLRVAAWKKGCLMVKVVMSGNAAVKRSDWASLVQVFLTNSNSTEHFDACRWTKSEPHSWELIFPIEVCGPNNGFEMWSSEWANQTSWHLSFLVDNPKQSTTFDVLLGISQNFEIAGNTLMPAFSVPQANARSSENAESSA	soluble
GRYEIRFSGAGGQGLILAGVIMAEAASIYDGKQAVQSQSYGPEARGGASKSEVIISDGPVDYPKATQCDALLALTQEACDKYSADLKEGGVLLVDSDLVTKLPPGNYQTTAFNIINTAKNDVGREIVANIVALGAMVALTGVVSKEAAEKAVLSRVPEAFVELNRKAFQMGFEKAL	not soluble
MEALAMAGVDYQEWGLSIEEWELQESVVPLHLLADDFKEEEQEEDHQDNDDDDRVLDGLAVKQSVTRDIRASVGKFIEQSMSHMIVHLKQLKFLTLLLENFLFTHVLDFLL	not soluble
SVSGLAILYLRRRRAPLARLRQAIQRCEFFVCYQPIVSLSDGRCVGAEALVRWRQQDGTLILPDQFIPLAERSGLILPITDQVIAASMRELGPLLVADRSLHIAINVSVKDIESGRLLDVLALALQDTGLYRKQLWIEATERSFMDARAAREHIVRLREAGYAVVIDDFGTGYSNLQYLQQLPLDALKIDKSFIDTVGRDVTNTAVASHIIDIAKELGMRTIAEGVEREEQLVYLRARGVDMAQGWLFSSP	not soluble
MTTAGYYAAVDWGTSSFRLWIIGEDGAVLAERRSAEGMTTAAKTGFHTILDGHLAAVSAPAHLPIIICGMAGARQGWKEAGYIETPAALAEIAGRATAIPDVDRDIRILPGLAQRDRRHPDVMRGEETQLLGAAAHLGAGSHLVCMPGTHSKWVRLADDRVEGFSTFMTGELFDTIARHTILSHAVAEADTFAAGSAAFTDAVSRTRENPALATNLLFSVRAGQLLHGTAAADARAQLSGTLIGLEIAGALAGSGSVDGVCLVGSGGLGTLYRTALESQGLNVRAVDADEAVRAGLSAAARAIWPL	not soluble
MGPGTTVRWRRRVSGWRRAGCAALIAGAVALPLSGAARPEIPAPPPAALAAPTAATLDKAYAANRANAAEASRMAADHGDRHRAAADRAMADRSRRLLAFDGRGTGLATEVFGDLARADRVAVLVPGSDTGLDTYGRFRATALALHRQLVAEAPAGTRTAVVAWLGYETPGTVSTTVATTDRADRAAPELRALVGDLRRITGPGTRLALLCHSYGSVVCARAADGLEVADIALVGSPGTGADTAAGLHSEARVWAGRGAEDWVEHVPHVSADLFGTTVGFGTDPVSPAFGARVFDAGDGGHSDYFDPGSRSLTNLARIALGETTEVTHALEHHHHHH	not soluble
MNALSGLQVITRRPDKRSASGVTKKCRKSLKTAPDTKTVFKGSFASHYVDKSSQVNPGTHITVRGSIHGEVSIKKMLKGSRCRTAL	not soluble
MAGEHIKVIYFDGRGRAESIRMTLVAAGVDYEDERISFQDWPKIKPTIPGGRLPAVKVTDDHGHVKWMLESLAIARYMAKKHHMMGETDEEYYSVEKLIGQAEDVEHEYHKTLMKPQEEKEKITKEILNGKVPVLFNMICESLKGSTGKLAVGDKVTLADLVLIAVIDHVTDLDKGFLTGKYPEIHKHRENLLASSPRLAKYLSNRPATPF	soluble
MGSDKIHHHHHHMKISGHTSVVVAEKLLSEAKFSNLTQSAVVMISQRLCLGIILTGFITNQALAAEPKQSVVPISSVLATNYNKTQIHVTPVHSLVPKLSTKRANFKQETTTQDSVYLADWVLDSGDNQQMPFAIVDKKAAKVYVFDALGQLTGAAPALLGLAVGDDSIPNIGNMALASIKPEQRTTPAGRFVVALGKNIHNKEVLWIDYDAAISLHRVVTSSPKERRLQRLESQNLLERRISYGCINVPVNFYDQVVSPAFTGTNGVVYVLPDTRSIQEVFGSYSEPPRVYRRQIYLSQAAMPDRVKLS	not soluble
SLFGYHDVEDFQAEIGEYKIKTERIGPFYSYVRENGERKEKNLSVETGRIIVNPVEPVNLPKEITNFLQIKFSKPFLAEPKSAVEVYATFPVEIAVFIAAKKNVGLVDVFSLQKPKYTLYGNPRAGIICRYWESELYSEIPQVDKYREGVIKLRIVNSDDEWVEVSNAVFDVYGMKIYYNEEMVCSSASVNIVSPKVAETRFIEQPLREKMKKALELYTARRIAVTSLKFVMEWGL	not soluble
MGSDKIHHHHHHMIVAVGKDEEKIKESLEEMKGLCKTLGVEVVEWLWQKRAKPDPATYLGKGKLQKLKEVVEFCEADLVVVDDEITPVQYKNMQSELNVDVLDRTQVILEIFARHATSEEGKLQVEMASLLYELPRLVGKGEELSRLGGGIGTRGPGEPLLEVLRRHIKNRIAQLRKRLKEIEQERNTQRKQRLEKKIPHVSIVGYTNAGKSTLLKVLTDSDVYVADKLFATLEPVTRRLKLKSGRVILVSDTVGFIRKLPHTIVSAFKATLEEIKYSDVLIHLVDASDPYLEEKMKASEKVLEEIGADKIPRILVFNKIDLCPRERIETLKWKYPEALFISAEKRIGLDQLLDRLEEVISQRDVQETLKVPLEKIGQIYALKDRLEILNEDYREGYALITLKTDRETLEMLKRKVAS	not soluble
GPGSMELNQLELFVASTEHTRSDAWRYLRRLRVLDCKIEEGFDRLHEIAVQLSGTDSDGNLVDNQGNGTLQPDRKKRGRPPLCKNAFTATPYNVGQSPDSSVLLVDPAVANLHEEFRKHSRSVKRYALEREQIAEELVASGKELTEYLEARMREFRATFSISD	soluble
MGSDKIHHHHHHMNGLDVLLSNNQNHHFYGVTIGVVTNNKDPKKLGRVKVKFPWLSSEEESYWARVVTLMAGNDRGIYFLPEVDDEVLVAFEQGDMNFPYILGALWNGKDKPPITNEDGKNNQRVIKSRSGHMIVLDDTEENEQIIIQDKTGKNKIVINSKENKMNIQVEKDLTIETKGKIILKSSDDDISIDCKNLQIKTQQNYQLEVGANCTIKAKSKYKLEAQSGLGIKCAAGVKINDGSLEVM	not soluble
MAEARPDSLTRSRAAKPAGEGAAFSPLYRQIKELLVQSLDRGEWKPGELIPSEIDLAARFQVSQGTVRKAVDELAAEHLLLRRQGKGTFVATHHEARVRYRFLRLAPDEEGEGGRAESRILECRRLRAPAEIARALELRAGETVVTIRRQLSMNHMPTVIDDLWLPGTHFRGLTLELLTASKAPLYGLFESEFGVSMVRADEKLRAVAASPEIAPLLGVEPGRPLLQVDRISYTYGDRPMEVRRGLYLTDHYHYRNSLN	soluble
MGSDKIHHHHHHMITIDALGQVCPIPVIRAKKALEGLGEAGGVVAVLVDNDISRQNLQKMAEGMGYQSEYQEKDNGVIEVTIVAGEGCAVETSGTPADSGLVVAIGRNTMGEGSEELGRILLKGFIYSLRELTPPPARLLFFNSGAYLTSKDSNSIEDLKAMAAQGTIIQTCGTCINYYGITEQLAVGQVANMYDIVTAMAEAKRLINI	not soluble
MSLVQNNESVFFVECDSYKESPSTSPIRLDDLDGNDAVSDQGLAFDGDVGITSQARVRNPRAQIFEDSNTDVVLHLDDLDMVPLNTKFDMQMEMGSPMAMPAETPPPVEPLKTKDLAYSSLAHLPSYFFEQTHFRIDRKCLLEMSKLRRNYLTISKQDALSCPQLHSRVAGGYLKPVKEKLFGIRHFLDLEESNTVNLLQDGNYMTELFNSQINIPTFKEFREDFEWCLKIIRDRSLSRFSEKRLQYLVNKFPVFQHLHSKEEMRQSKKVPHKDFYNCRKIDLNLLLSGCFSQWQLTEFIWTKLRKEPDRVIHQAFNGSHITLSQLFKVNFEETGQFFNGLKIIDDSFLEWYKVIYLAKYHLVNDEMEIHTGSHGKQLRYYLIAKTFLEFDNYINGEYLAELLKTFLIKPQEESKYQLCQLSVDFQFYLHYDNSDVDNWWMVFANWLNHYNIFSNNIRWNIRISRIYPELYHTGKVKNFQEYLNLIFKPLFNAENYLHKSLGPILLKFLSQVSSIDLCIQDTDNYIWKNFTAVSCLPKDWTSGGDNPTISQYMYYVYVNLTKLNHIRQALHQNTFTLRSSCSPTSMNRTSQFSNTLNFTEHTEAILNNFLLACGGFLNAENLWNAPPSLVYLFYLSQIPMVVAPLNSIVDSKPTMLQEQAPTGLVLEPSKPYKKNPFMKFFEMGFKISLSSESILYNNSYTKEPIIEEYSVAASIYRLHSADLCELLRNSVITSGFSSTLKNKWLGVSLASHDYFVENTGFVDKWYDCKPNTSLEHNVPIIRRQYRSSTLAGEWRLIIAEGHHHHHH	not soluble
MATSGTYVTEVPLKGSAKNHYKRWKSENQLFPDAIGHHIQGVTVHEGDWDSHGAIKSWNYTCDGKQEVFKEKRELDDQKMAVTFRGLDGHVMEQLKVYDVIFQFVPKSQEGCVCKVTMFWEKRYEDSPEPIKYMKFVTSLAADMDDHILKNQSKA	soluble
MAHHHHHHMAQRVHYRRHNHYNTKSNKVRPVRTPGGKLTIHVVKKKAGKPKCADCKTAIQGVKALRPADNYRARRKNRTVARAYGGSICARCIRERIMRAFLFEEQKCVRQVLKEKKKQEKKVKKVKKEKKKVNAKEVKKTATDNKKAKKVADKKKGK	not soluble
MRGSHHHHHHTDPALRAASTFTSDTLPADHKAAIRQMKHALRAQLGDVQQIFNQLSDDIATRVAEINALKAQGDAVWPVLSYADIKAGHVTAEQREQIKRRGCAVIKGHFPREQALGWDQSMLDYLDRNRFDEVYKGPGDNFFGTLSASRPEIYPIYWSQAQMQARQSEEMANAQSFLNRLWTFESDGKQWFNPDVSVIYPDRIRRRPPGTTSKGLGAHTDSGALERWLLPAYQRVFANVFNGNLAQYDPWHAAHRTEVEEYTVDNTTKCSVFRTFQGWTALSDMLPGQGLLHVVPIPEAMAYVLLRPLLDDVPEDELCGVAPGRVLPVSEQWHPLLIEALTSIPKLEAGDSVWWHCDVIHSVAPVENQQGWGNVMYIPAAPMCEKNLAYAHKVKAALEKGASPGDFPREDYETNWEGRFTLADLNIHGKRALGMDVGLCGR	soluble
SLVKLSTPLRVVTTLPHQPGRTGYIVFKKVPESFRCDSIASFYRRVRRSMGLREAVVFLTAAEVDRPLHEVIDEPETHIIATVGLKPPACPGGTAGAPRPGTINIAVATSAGLSRAGAIDLLRVVAEAKAAAAAEALLPCLHRATGTATDAIAVLHTPGATDFSGFYTRLGGLVGRSLYFALVDAAVARRGPDSLLRALTGMSMEGLLELFRRVYMQSPIPGVPVEEALGRAGRMLERMMRDPNVAALLIAARELDLHGSAGAIPGLSRSGYKGDSKAIVADELLAAALAEYLAGFKGLLATIWVEKLKSMGLADAGLPMFMDDMVSAVVGSLVSRLHDEVREG	soluble
SNAMNDIILKSLSTLITEQRNPNSVDIDRQSTLEIVRLMNEEDKLVPLAIESCLPQISLAVEQIVQAFQQGGRLIYIGAGTSGRLGVLDASECPPTFGVSTEMVKGIIAGGECAIRHPVEGAEDNTKAVLNDLQSIHFSKNDVLVGIAASGRTPYVIAGLQYAKSLGALTISIASNPKSEMAEIADIAIETIVGPEILTGSSRLKSGTAQKMVLNMLTTASMILLGKCYENLMVDVQASNEKLKARAVRIVMQATDCNKTLAEQTLLEADQNAKLAIMMILSTLSKSEAKVLLERHQGKLRNALSK	soluble

From the DeepSol protein solubility set
